The text below walks through data of US20100260668A1 (published 2010).

First the molecules themselves.
B1: DVD512 (bispecific antibody, human IgG1, lambda, L234A L235A)
heavy: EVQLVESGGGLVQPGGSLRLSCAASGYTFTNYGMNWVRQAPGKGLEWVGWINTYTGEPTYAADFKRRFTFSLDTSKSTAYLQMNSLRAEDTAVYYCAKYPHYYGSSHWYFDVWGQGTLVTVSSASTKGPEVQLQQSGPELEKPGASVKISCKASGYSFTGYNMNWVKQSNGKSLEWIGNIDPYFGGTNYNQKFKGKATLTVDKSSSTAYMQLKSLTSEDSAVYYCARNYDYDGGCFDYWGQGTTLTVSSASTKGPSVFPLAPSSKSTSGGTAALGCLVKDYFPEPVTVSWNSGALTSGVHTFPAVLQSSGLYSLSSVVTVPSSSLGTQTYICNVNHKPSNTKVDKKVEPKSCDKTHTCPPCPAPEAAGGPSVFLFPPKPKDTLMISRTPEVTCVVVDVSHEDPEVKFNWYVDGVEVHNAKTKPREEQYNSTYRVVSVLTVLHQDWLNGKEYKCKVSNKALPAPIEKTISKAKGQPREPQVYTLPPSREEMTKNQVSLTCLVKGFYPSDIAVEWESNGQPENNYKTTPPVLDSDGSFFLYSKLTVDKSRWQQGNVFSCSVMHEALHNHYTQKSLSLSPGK
light: DIQMTQSPSSLSASVGDRVTITCSASQDISNYLNWYQQKPGKAPKVLIYFTSSLHSGVPSRFSGSGSGTDFTLTISSLQPEDFATYYCQQYSTVPWTFGQGTKVEIKRTVAAPQAVVTQESALTTSPGETVTLTCRSSTGAVTTSNYANWVQEKPDHLFTGLIGGTNNRAPGVPARFSGSLIGDKAALTITGAQTEDEAIYFCALWYSNHWVFGGGTKLTVLGQPKAAPSVTLFPPSSEELQANKATLVCLISDFYPGAVTVAWKADSSPVKAGVETTTPSKQSNNKYAASSYLSLTPEQWKSHRSYSCQVTHEGSTVEKTVAPTECS
notes: DVD-Ig; N-term; VD VEGF (AB014), C-term; VD DLL4 (AB073); HC linker short, LC linker short; also called DVD-Ig DVD512; DVD512H
B2: DVD470 (bispecific antibody, human IgG1, kappa)
heavy: not shown
light: DIQMTQSPSSLSASVGDRVTITCSASQDISNYLNWYQQKPGKAPKVLIYFTSSLHSGVPSRFSGSGSGTDFTLTISSLQPEDFATYYCQQYSTVPWTFGQGTKVEIKRTVAAPSVFIFPPDIQMTQSPSSLSASVGDRVTITCRASQDVSTAVAWYQQKPGKAPKLLIYSASFLYSGVPSRFSGSGSGTDFTLTISSLQPEDFATTYYCQQSYTGTVTFGQGTKVEIKRTVAAPSVFIFPPSDEQLKSGTASVVCLLNNFYPREAKVQWKVDNALQSGNSQESVTEQDSKDSTYSLSSTLTLSKADYEKHKVYACEVTHQGLSSPVTKSFNRGEC
notes: DVD-Ig; N-term; VD VEGF (AB014), C-term; VD DLL4 (AB015); HC linker long, LC linker long; also called DVD-Ig DVD470; DVD470H
B3: DVD482 (bispecific antibody, human IgG1, kappa)
heavy: not shown
light: B2 light
notes: DVD-Ig; N-term; VD VEGF (AB014), C-term; VD DLL4 (AB015); HC linker short, LC linker long; also called DVD-Ig DVD482; DVD482H
B4: DVD043 (bispecific antibody, human IgG1, kappa)
heavy: not shown
light: DIQMTQSPSSLSASVGDRVTITCSASQDISNYLNWYQQKPGKAPKVLIYFTSSLHSGVPSRFSGSGSGTDFTLTISSLQPEDFATYYCQQYSTVPWTFGQGTKVEIKRTVAAPDIQMTQSPSSLSASVGDRVTITCRASQDVSTAVAWYQQKPGKAPKLLIYSASFLYSGVPSRFSGSGSGTDFTLTISSLQPEDFATTYYCQQSYTGTVTFGQGTKVEIKRTVAAPSVFIFPPSDEQLKSGTASVVCLLNNFYPREAKVQWKVDNALQSGNSQESVTEQDSKDSTYSLSSTLTLSKADYEKHKVYACEVTHQGLSSPVTKSFNRGEC
notes: DVD-Ig; N-term; VD VEGF (AB014), C-term; VD DLL4 (AB015); HC linker short, LC linker short; also called DVD-Ig DVD043; DVD043H
B5: DVD476 (bispecific antibody, human IgG1, kappa)
heavy: not shown
light: B4 light
notes: DVD-Ig; N-term; VD VEGF (AB014), C-term; VD DLL4 (AB015); HC linker long, LC linker short; also called DVD-Ig DVD476; DVD476H
B6: DVD518 (bispecific antibody, human IgG1, kappa, lambda)
heavy: not shown
light: DIQMTQSPSSLSASVGDRVTITCSASQDISNYLNWYQQKPGKAPKVLIYFTSSLHSGVPSRFSGSGSGTDFTLTISSLQPEDFATYYCQQYSTVPWTFGQGTKVEIKRTVAAPSVFIFPPQAVVTQESALTTSPGETVTLTCRSSTGAVTTSNYANWVQEKPDHLFTGLIGGTNNRAPGVPARFSGSLIGDKAALTITGAQTEDEAIYFCALWYSNHWVFGGGTKLTVLGQPKAAPSVTLFPPSSEELQANKATLVCLISDFYPGAVTVAWKADSSPVKAGVETTTPSKQSNNKYAASSYLSLTPEQWKSHRSYSCQVTHEGSTVEKTVAPTECS
notes: DVD-Ig; N-term; VD VEGF (AB014), C-term; VD DLL4 (AB073); HC linker long, LC linker long; also called DVD-Ig DVD518; DVD518H
B7: DVD491 (bispecific antibody, human IgG1, kappa)
heavy: not shown
light: DIQMTQSSSYLSVSLGGRVTITCKASDHINNWLAWYQQKPGNAPRLLISGATSLETGVPSRFSGSGSGKDYTLSITSLQTEDVATYYCQQYWSIPLTFGAGTKLELKRTVAAPDIQMTQSPSSLSASVGDRVTITCRASQVIRRSLAWYQQKPGKAPKLLIYAASNLASGVPSRFSGSGSGTDFTLTISSLQPEDFATYYCQQSNTSPLTFGQGTKVEIKRTVAAPSVFIFPPSDEQLKSGTASVVCLLNNFYPREAKVQWKVDNALQSGNSQESVTEQDSKDSTYSLSSTLTLSKADYEKHKVYACEVTHQGLSSPVTKSFNRGEC
notes: DVD-Ig; N-term; AB072 (DLL4), C-term; AB071 (VEGF); HC linker short, LC linker short; also called DVD491H; DVD491L
B8: DVD503 (bispecific antibody, human IgG1, kappa)
heavy: not shown
light: B7 light
notes: DVD-Ig; N-term; AB072 (DLL4), C-term; AB071 (VEGF); HC linker long, LC linker short; also called DVD503H; DVD503L
B9: DVD521 (bispecific antibody, human IgG1, kappa, lambda, L234A L235A)
heavy: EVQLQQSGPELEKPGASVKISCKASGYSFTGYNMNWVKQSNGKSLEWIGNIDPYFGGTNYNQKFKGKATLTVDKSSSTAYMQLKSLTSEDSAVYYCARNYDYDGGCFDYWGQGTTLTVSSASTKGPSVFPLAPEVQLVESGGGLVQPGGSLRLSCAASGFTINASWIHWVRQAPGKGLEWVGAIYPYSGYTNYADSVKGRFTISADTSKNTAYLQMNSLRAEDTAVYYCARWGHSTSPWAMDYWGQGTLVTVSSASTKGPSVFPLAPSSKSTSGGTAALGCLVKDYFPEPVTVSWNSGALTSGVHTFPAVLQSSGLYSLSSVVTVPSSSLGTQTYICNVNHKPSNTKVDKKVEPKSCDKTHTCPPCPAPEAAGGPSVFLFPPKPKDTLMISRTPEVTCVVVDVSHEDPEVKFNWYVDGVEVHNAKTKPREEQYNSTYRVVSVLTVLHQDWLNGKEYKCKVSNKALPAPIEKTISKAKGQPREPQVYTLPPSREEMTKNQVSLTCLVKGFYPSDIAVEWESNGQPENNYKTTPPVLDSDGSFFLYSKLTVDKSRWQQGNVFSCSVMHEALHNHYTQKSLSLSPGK
light: QAVVTQESALTTSPGETVTLTCRSSTGAVTTSNYANWVQEKPDHLFTGLIGGTNNRAPGVPARFSGSLIGDKAALTITGAQTEDEAIYFCALWYSNHWVFGGGTKLTVLGQPKAAPSVTLFPPDIQMTQSPSSLSASVGDRVTITCRASQVIRRSLAWYQQKPGKAPKLLIYAASNLASGVPSRFSGSGSGTDFTLTISSLQPEDFATYYCQQSNTSPLTFGQGTKVEIKRTVAAPSVFIFPPSDEQLKSGTASVVCLLNNFYPREAKVQWKVDNALQSGNSQESVTEQDSKDSTYSLSSTLTLSKADYEKHKVYACEVTHQGLSSPVTKSFNRGEC
notes: DVD-Ig; N-term; AB073 (DLL4), C-term; AB071 (VEGF); HC linker long, LC linker long; also called DVD521H; DVD521L
B10: DVD533 (bispecific antibody, human IgG1, kappa, lambda, L234A L235A)
heavy: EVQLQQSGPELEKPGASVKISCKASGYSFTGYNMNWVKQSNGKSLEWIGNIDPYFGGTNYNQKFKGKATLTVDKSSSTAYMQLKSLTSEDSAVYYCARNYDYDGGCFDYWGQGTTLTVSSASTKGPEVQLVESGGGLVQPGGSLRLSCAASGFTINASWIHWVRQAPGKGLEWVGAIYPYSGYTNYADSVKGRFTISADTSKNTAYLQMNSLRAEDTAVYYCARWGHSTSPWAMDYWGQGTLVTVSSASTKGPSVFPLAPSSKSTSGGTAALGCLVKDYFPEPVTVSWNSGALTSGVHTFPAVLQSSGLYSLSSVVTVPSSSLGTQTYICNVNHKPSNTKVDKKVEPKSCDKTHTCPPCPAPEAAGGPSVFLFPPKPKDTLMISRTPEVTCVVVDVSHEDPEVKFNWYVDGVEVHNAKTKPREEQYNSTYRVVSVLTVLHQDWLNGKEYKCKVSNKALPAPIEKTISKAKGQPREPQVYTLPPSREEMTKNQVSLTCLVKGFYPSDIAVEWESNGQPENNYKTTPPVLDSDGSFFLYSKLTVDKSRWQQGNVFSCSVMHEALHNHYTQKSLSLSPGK
light: B9 light
notes: DVD-Ig; N-term; AB073 (DLL4), C-term; AB071 (VEGF); HC linker short, LC linker long; also called DVD533H; DVD533L
B11: DVD468 (bispecific antibody, human IgG1, kappa)
heavy: not shown
light: DIQMTQSPSSLSASVGDRVTITCRASQVIRRSLAWYQQKPGKAPKLLIYAASNLASGVPSRFSGSGSGTDFTLTISSLQPEDFATYYCQQSNTSPLTFGQGTKVEIKRTVAAPDIQMTQSPSSLSASVGDRVTITCRASQDVSTAVAWYQQKPGKAPKLLIYSASFLYSGVPSRFSGSGSGTDFTLTISSLQPEDFATTYYCQQSYTGTVTFGQGTKVEIKRTVAAPSVFIFPPSDEQLKSGTASVVCLLNNFYPREAKVQWKVDNALQSGNSQESVTEQDSKDSTYSLSSTLTLSKADYEKHKVYACEVTHQGLSSPVTKSFNRGEC
notes: DVD-Ig; N-term; AB071 (VEGF), C-term; AB015 (DLL4); HC linker short, LC linker short; also called DVD468H; DVD468L
B12: DVD527 (bispecific antibody, human IgG1, kappa)
heavy: not shown
light: QAVVTQESALTTSPGETVTLTCRSSTGAVTTSNYANWVQEKPDHLFTGLIGGTNNRAPGVPARFSGSLIGDKAALTITGAQTEDEAIYFCALWYSNHWVFGGGTKLTVLGQPKAAPDIQMTQSPSSLSASVGDRVTITCRASQVIRRSLAWYQQKPGKAPKLLIYAASNLASGVPSRFSGSGSGTDFTLTISSLQPEDFATYYCQQSNTSPLTFGQGTKVEIKRTVAAPSVFIFPPSDEQLKSGTASVVCLLNNFYPREAKVQWKVDNALQSGNSQESVTEQDSKDSTYSLSSTLTLSKADYEKHKVYACEVTHQGLSSPVTKSFNRGEC
notes: DVD-Ig; N-term; AB073 (DLL4), C-term; AB071 (VEGF); HC linker long, LC linker short; also called DVD527H; DVD527L
B13: DVD497 (bispecific antibody, human IgG1, kappa)
heavy: not shown
light: DIQMTQSSSYLSVSLGGRVTITCKASDHINNWLAWYQQKPGNAPRLLISGATSLETGVPSRFSGSGSGKDYTLSITSLQTEDVATYYCQQYWSIPLTFGAGTKLELKRTVAAPSVFIFPPDIQMTQSPSSLSASVGDRVTITCRASQVIRRSLAWYQQKPGKAPKLLIYAASNLASGVPSRFSGSGSGTDFTLTISSLQPEDFATYYCQQSNTSPLTFGQGTKVEIKRTVAAPSVFIFPPSDEQLKSGTASVVCLLNNFYPREAKVQWKVDNALQSGNSQESVTEQDSKDSTYSLSSTLTLSKADYEKHKVYACEVTHQGLSSPVTKSFNRGEC
notes: DVD-Ig; N-term; AB072 (DLL4), C-term; AB071 (VEGF); HC linker long, LC linker long; also called DVD497H; DVD497L
B14: DVD509 (bispecific antibody, human IgG1, kappa)
heavy: not shown
light: B13 light
notes: DVD-Ig; N-term; AB072 (DLL4), C-term; AB071 (VEGF); HC linker short, LC linker long; also called DVD509H; DVD509L

The target of one experiment is T1, DLL4 (DLL ECD His tag, R&D 1506-D4-050) (UniProt Q9NR61 27-529).
T1 construct: extracellular domain; bought
In words: BIACORE (SPR), DVD-Ig against DLL4.
The term Kd denotes a measure of binding affinity in units of concentration. Read a high Kd as a looser complex. Broadly, the koff is the first-order rate constant of dissociation. The term kon denotes a measure of how fast the partners come together. Consider B1, for which the Kd amounted to 2.94 nM, the koff was 0.000757 s⁻¹ and the kon came out at 258000 M⁻¹ s⁻¹.

On to B2, for which the Kd came to 1.03 nM, the koff stood at 7.02e-05 s⁻¹ and the kon stood at 68400 M⁻¹ s⁻¹.

Regarding B3, binding was characterised by a dissociation constant (Kd) of 2.08 nM, the off-rate (koff) worked out at 0.000232 s⁻¹ and the kon is 111000 M⁻¹ s⁻¹.

In turn, B4 returned a Kd of 8.4 nM, a koff of 0.000281 s⁻¹ and a kon of 33400 M⁻¹ s⁻¹.

For B5, the Kd stood at 2.96 nM, the koff was determined as 0.000167 s⁻¹ and the kon was 56300 M⁻¹ s⁻¹.

In turn, B6 had a Kd of 3.72 nM, a koff of 0.000454 s⁻¹ and a kon of 122000 M⁻¹ s⁻¹.

For another experiment, the target named is T2, VEGF (UniProt P15692-4 27-191).
T2 construct: Bought reagent; also called vascular endothelial growth factor
T2 sequence (P15692 other isoform, or with tags, fused parts or gaps limits assumed): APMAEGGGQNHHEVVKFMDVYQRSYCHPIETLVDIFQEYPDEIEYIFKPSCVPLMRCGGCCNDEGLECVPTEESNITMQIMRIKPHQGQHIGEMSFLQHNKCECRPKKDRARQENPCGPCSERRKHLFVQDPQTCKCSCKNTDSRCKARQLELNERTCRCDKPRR
In words: BIACORE SPR. (In general: In SPR one partner is held on a chip, and binding of the other changes the refractive index at the surface.)
For the molecule B7, binding was characterised by a dissociation constant (Kd) of 0.72 nM, the koff is 0.000245 s⁻¹ and the kon amounted to 340000 M⁻¹ s⁻¹.

Regarding B8, the Kd amounted to 0.466 nM, the koff worked out at 0.000105 s⁻¹ and the kon stood at 226000 M⁻¹ s⁻¹.

B9 returned a Kd of 0.882 nM, a koff of 0.000588 s⁻¹ and a kon of 666000 M⁻¹ s⁻¹.

Molecule B10 had a Kd of 0.825 nM, a koff of 0.000501 s⁻¹ and a kon of 608000 M⁻¹ s⁻¹.

In the case of B11, the affinity, expressed as Kd, was 0.00148 nM; the koff came out at 1.74e-07 s⁻¹; the kon worked out at 118000 M⁻¹ s⁻¹.

B12 showed a Kd of 0.842 nM, a koff of 0.000446 s⁻¹ and a kon of 529000 M⁻¹ s⁻¹.

For the molecule B13, the Kd was 0.668 nM, the koff stood at 8.37e-05 s⁻¹ and the kon turned out to be 125000 M⁻¹ s⁻¹.

With B14, the Kd worked out at 0.0613 nM, the koff was 7.83e-06 s⁻¹ and the kon is 128000 M⁻¹ s⁻¹.
